Data: paper PMC8887749, “The interaction of dengue virus capsid protein with negatively charged interfaces drives the in vitro assembly of nucleocapsid-like particles”

Experiments:
[1] = target: Dengue virus capsid (C) protein, recombinant DENVC (dengue virus serotype 2) (UniProt P29990); assay: SAXS
[2] = target: DENV capsid protein (DENVC) (Dengue virus serotype 2, UniProt P29990 1-100); assay: fluorescence anisotropy; FITC-DENVC 50 nM; 1:1 DENVC:oligo stoichiometry; affinity stated only as nanomolar range; 55 mM NaH2PO4, 200 mM NaCl, 5 mM EDTA, pH 7.4, 25 C; settings: protein: recombinant; chain copies: 2; single strand
DENV capsid protein (DENVC), sequence (P29990 1-100): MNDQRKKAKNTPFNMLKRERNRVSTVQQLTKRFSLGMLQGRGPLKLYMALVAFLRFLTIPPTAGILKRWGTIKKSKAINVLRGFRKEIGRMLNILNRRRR

Dengue virus capsid (C) protein, recombinant DENVC, sequence (P29990 1-100): as above

Molecule | stoichiometry N [1] | binding result [2]
Dengue virus capsid (C) protein, recombinant DENVC (from UniProt P29990 1-100) (natural protein) | 2 | –
TCCATGGTAGACAGAGGATGGGGGA (ssDNA) [25-mer ssDNA] | – | binds
GGGGG (ssDNA) [5-mer ssDNA] | – | binds
